These results are taken from patent publication US20100221257A1.

This experiment has as its target Antibody 6 (Eu3+ cryptate labelled, Example 5). Put plainly: HTRF competition: unlabelled test protein (maximum 100 nM) against biotin labelled human IL-1R1/Fc binding to cryptate labelled antibody.

Chain of Antibody 6 (Eu3+ cryptate labelled, Example 5) (VH, as listed by the source, chain 1 of 2): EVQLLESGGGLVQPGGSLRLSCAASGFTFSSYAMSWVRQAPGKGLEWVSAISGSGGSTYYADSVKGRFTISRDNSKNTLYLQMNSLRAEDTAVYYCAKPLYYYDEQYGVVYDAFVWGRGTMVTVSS
Chain of Antibody 6 (Eu3+ cryptate labelled, Example 5) (VL, as listed by the source, chain 2 of 2): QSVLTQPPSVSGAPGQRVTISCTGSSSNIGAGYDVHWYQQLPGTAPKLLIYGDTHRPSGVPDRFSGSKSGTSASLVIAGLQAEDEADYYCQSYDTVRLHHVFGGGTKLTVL

B1: MoIL-1R1 (mouse IL-1R1 extracellular domain Fc fusion) (Fc fusion, UniProt P13504 20-338, looked up, not shown: a dimerising Fc or GST)
chain: LEIDVCTEYPNQIVLFLSVNEIDIRKCPLTPNKMHGDTIIWYKNDSKTPISADRDSRIHQQNEHLWFVPAKVEDSGYYYCIVRNSTYCLKTKVTVTVLENDPGLCYSTQATFPQRLHIAGDGSLVCPYVSYFKDENNELPEVQWYKNCKPLLLDNVSFFGVKDKLLVRNVAEEHRGDYICRMSYTFRGKQYPVTRVIQFITIDENKRDRPVILSPRNETIEADPGSMIQLICNVTGQFSDLVYWKWNGSEIEWNDPFLAEDYQFVEHPSTKRKYTLITTLNISEVKSQFYRYPFICVVKNTNIFESAHVQLIYPVPDFK
On to B1, for which the percentage inhibition at the highest concentration of chimera came to 66%.
